Source: paper PMC9152305

Experiments:
[1] = target: SARS-CoV-2 Omicron BA.2 spike extracellular domain trimer (SARS-CoV-2 Omicron BA.2) (UniProt P0DTC2); assay: cryo-EM structure
[2] = target: SARS-CoV-2 Omicron BA.2 spike extracellular domain trimer (SARS-CoV-2 Omicron BA.2) (UniProt P0DTC2); assay: BLI

Substance	stoichiometry N (Fab per spike trimer) [1]	Kd [2] [nM]
JMB2002 Fab	3	2.6
JMB2002 IgG (antibody)		0.3
